{
  "source": "paper PMC11924945",
  "about": "(2024)",
  "target": "human CD47 (19 to 135) tagged with human immunoglobulin G1 Fc (N297A) (human, UniProt Q08722 19-135, biotin (NHS-biotin, 10-fold molar excess) in SPR)",
  "sequence (Q08722 19-135, stated change not applied)": "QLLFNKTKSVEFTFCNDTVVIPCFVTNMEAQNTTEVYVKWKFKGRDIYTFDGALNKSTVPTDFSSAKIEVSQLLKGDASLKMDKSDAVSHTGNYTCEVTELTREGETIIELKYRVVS",
  "assay": "SPR",
  "data": [
    {"binder": "Aedes aegypti Nest1 (neutrophil-stimulating factor 1), recombinant, amino acids 22 to 316 (natural protein, biotin (BirA500 kit) in the yeast library screen) KPTQGSCTLTDEDISDIKSAVQKASKAAVNDIVLDPTLIDKCPMLEKITASLKSVATEIVQMRDSAISTDQVDQLKQNFEDQVNQIVKSRDIFEKQSGTQATKEHGEMLERMTALQVKVTELEQQIAKQTASMYEDMAELIFQRLQMNSTESVRSYTKHMMEEKLEELMNKLETNYRIYLGALRFLNHMNDQELIGKVFDGILKRLGDMKADSDDVKENGRNLLVNLLCWTVNNDFLGKKYKERQVDLYRMALKFYPKTYEKAANEADVRSRQFCEENFPANLITWFAVSWNDRG", "values": [
      {"measurement": "koff", "value": 0.0121, "unit": "s⁻¹"}
    ]}
  ]
}
